In test [1] the target is T1, PRAME peptide on HLA-A*02:01 (human).
T1 peptide: SLLQHLIGL
The test can be described thus: multimer staining.

The target in test [2] is T2, soluble HLA:A2:PRAME (425-433) tetramer (human).
T2 construct: Commercial tetramer (MBL International); construct limits, biotin tag and streptavidin/fluorophore not described; also called PRAME/HLA tetramer reagent; PRAME (425-433)/HLA-A2
The test can be described thus: flow cytometry, soluble pMHC tetramer on CHO cells expressing the TCR.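 Also: CHO cells transfected with vectors encoding full-length paired TCR alpha and beta chains, stained with PRAME/HLA tetramer and read by flow cytometry, each value reflects one listed TCR.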 In general terms: A flow cytometer gives signals particle by particle.

Test [3] addresses HLA-A2/PRAME (425-433) on HLA-A2*01 HEK293T cells pulsed with PRAME 425-433 peptide (human). Put plainly: cell-based or functional assay.
The target of the next test is T3, peptide on HLA-A*02:01 (human).
T3 peptide: SLLMWITQC
Put plainly: activation reporter or marker.

B1: PN42750 (TCR, V domains shown)
V domain 1: DAKTTQPNSMESNEEEPVHLPCNHSTISGTDYIHWYRQLPSQGPEYVIHGLTSNVNNRMASLAIAEDRKSSTLILHRSTLRDAAVYYCILRPDSWGKFQFGAGTQVVVTP
V domain 2: DVKVTQSSRYLVKRTGEKVFLECVQDMDHENMFWYRQDPGLGLRLIYFSYDVKMKEKGDIPEGYSVSREKKERFSLILESASTNQTSMYLCASSTVRQGNYGYTFGSGTRLTVV
notes: stained with anti-mouse TCR constant region antibody H57-597) and full-length chains were expressed on CHO cells
B1: in test [1], the binding result is reported as “recognises”. For the same molecule, in test [2], the “Cell Frequency ≥1000 MFI, ≥1% (% tetramer positive cells in the Ag+ gate)” value was 40.8%.

B2: PN42476 (TCR)
TCR alpha: DAKTTQPNSMESNEEEPVHLPCNHSTISGTDYIHWYRQLPSQGPEYVIHGLTSNVNNRMASLAIAEDRKSSTLILHRSTLRDAAVYYCILRPDSWGKFQFGAGTQVVVTP
TCR beta: EAQVTQSPRYLITVTGKKLTVTCSQNMDHEYMSWYRQDPGLGLRQIYYSMNVEVTDKGDVPEGYKVPRKEKRSFPLILESPCCSQTPLYLCASSLGGVDERLSFGSGTQLSVL
notes: as for B1
For B2, the binding result in test [1] was “recognises”. In addition, the “Cell Frequency ≥1000 MFI, ≥1% (% tetramer positive cells in the Ag+ gate)” value in test [2] was determined as 54.2%.

B3: PN42365 (TCR, V domains shown)
V domain 1: TQLLEQSPQFLSIQEGENLTVYCNSSSVFSSLQWYRQEPGEGPVLLVTVVTGGEVKKLKRLTFQFGDARKDSSLHITAAQPGDTGLYLCAANGGSQGNLIFGKGTKLSVKP
V domain 2: DAGVTQSPTHLIKTRGQQVTLRCSPKSGHDTVSWYQQALGQGPQFIFQYYEEEERQRGNFPDRFSGHQFPNYSSELNVNALLLGDSALYLCASSLQDYGYTFGSGTRLTVV
Turning to B3, in test [3], the “EC50 (µM) of peptide, AP1 luciferase reporter in Jurkat cells expressing the TCR” value (shortened to “EC50 (µM) of peptide”) came out at 0.0159 µM. The binding result is recorded as “recognises” in test [1] and “no recognition” in the test with peptide on HLA-A*02:01. In addition, the “Cell Frequency ≥1000 MFI, ≥1% (% tetramer positive cells in the Ag+ gate)” value in test [2] worked out at 95.8%.

B4: PN42483 (TCR, V domains shown)
V domain 1: TQLLEQSPQFLSIQEGENLTVYCNSSSVFSSLQWYRQEPGEGPVLLVTVVTGGEVKKLKRLTFQFGDARKDSSLHITAAQPGDTGLYLCAGDGGSQGNLIFGKGTKLSVKP
V domain 2: EAQVTQSPRYLITVTGKKLTVTCSQNMNHEYMSWYRQDPGLGLRQIYYSMNVEVTDKGDVPEGYKVSRKEKRNFPLILESPSPNQTSLYFCASSLGGADEKLFFGSGTQLSVL
As to B4, the binding result in the test with peptide on HLA-A*02:01 is “no recognition”. Moreover, the “Cell Frequency ≥1000 MFI, ≥1% (% tetramer positive cells in the Ag+ gate)” value in test [2] is 86.4%.

B5: PN42879 (TCR, V domains shown)
V domain 1: TQLLEQSPQFLSIQEGENLTVYCNSSSVFSSLQWYRQEPGEGPVLLVTVVTGGEVKKLKRLTFQFGDARKDSSLHITAAQPGDTGLYLCAGEDFGNEKLTFGTGTRLTIIP
V domain 2: DAGVTQSPTHLIKTRGQQVTLRCSPKSGHDTVSWYQQALGQGPQFIFQYYEEEERQRGNFPDRFSGHQFPNYSSELNVNALLLGDSALYLCASSWADYGYTFGSGTRLTVV
Take B5: the binding result with peptide on HLA-A*02:01 was “no recognition”. Also, in test [2], the “Cell Frequency ≥1000 MFI, ≥1% (% tetramer positive cells in the Ag+ gate)” value was 93.1%.

B6: PN42378 (TCR, V domains shown)
V domain 1: DAKTTQPNSMESNEEEPVHLPCNHSTISGTDYIHWYRQLPSQGPEYVIHGLTSNVNNRMASLAIAEDRKSSTLILHRSTLRDAAVYYCILRPDSWGKFQFGAGTQVVVTP
V domain 2: DAGVTQSPTHLIKTRGQQVTLRCSPKSGHDTVSWYQQALGQGPQFIFQYYEEEERQRGNFPDRFSGHQFPNYSSELNVNALLLGDSALYLCASSLQDYGYTFGSGTRLTVV
notes: as for B1
B6: the binding result in test [1] was “recognises”. For the same molecule, the “Cell Frequency ≥1000 MFI, ≥1% (% tetramer positive cells in the Ag+ gate)” value in test [2] was 77.5%.

B7: PN42776 (TCR, V domains shown)
V domain 1: DAKTTQPNSMESNEEEPVHLPCNHSTISGTDYIHWYRQLPSQGPEYVIHGLTSNVNNRMASLAIAEDRKSSTLILHRSTLRDAAVYYCILRPDSWGKFQFGAGTQVVVTP
V domain 2: DAGVTQSPTHLIKTRGQQVTLRCSPKSGHDTVSWYQQALGQGPQFIFQYYEEEERQRGNFPDRFSGHQFPNYSSELNVNALLLGDSALYLCASSWTDYGYTFGSGTRLTVV
notes: as for B1
Consider B7, for which, in test [1], the binding result was “recognises”. Besides, the “Cell Frequency ≥1000 MFI, ≥1% (% tetramer positive cells in the Ag+ gate)” value in test [2] worked out at 60.2%.

B8: PN42455 (TCR, V domains shown)
V domain 1: DAKTTQPNSMESNEEEPVHLPCNHSTISGTDYIHWYRQLPSQGPEYVIHGLTSNVNNRMASLAIAEDRKSSTLILHRSTLRDAAVYYCILRPDSWGKFQFGAGTQVVVTP
V domain 2: DAGVTQSPTHLIKTRGQQVTLRCSPKSGHDTVSWYQQALGQGPQFIFQYYEEEERQRGNFPDRFSGHQFPNYSSELNVNALLLGDSALYLCASSLVDYGYTFGSGTRLTVV
notes: as for B1
For the molecule B8, the binding result in test [1] is listed as “recognises”. In addition, the “Cell Frequency ≥1000 MFI, ≥1% (% tetramer positive cells in the Ag+ gate)” value in test [2] is 53%.

B9: PN42498 (TCR, V domains shown)
V domain 1: TQLLEQSPQFLSIQEGENLTVYCNSSSVFSSLQWYRQEPGEGPVLLVTVVTGGEVKKLKRLTFQFGDARKDSSLHITAAQPGDTGLYLCAGDGGSQGNLIFGKGTKLSVKP
V domain 2: DAGVTQSPTHLIKTRGQQVTLRCSPKSGHDTVSWYQQALGQGPQFIFQYYEEEERQRGNFPDRFSGHQFPNYSSELNVNALLLGDSALYLCASSLVDYGYTFGSGTRLTVV
For the molecule B9, the “EC50 (µM) of peptide” value in test [3] was found to be 0.00242 µM. Moreover, the binding result in test [1] is “recognises”; with peptide on HLA-A*02:01, “no recognition”. Also, the “Cell Frequency ≥1000 MFI, ≥1% (% tetramer positive cells in the Ag+ gate)” value in test [2] was found to be 90.3%.

B10: PN42386 (TCR, V domains shown)
V domain 1: TQLLEQSPQFLSIQEGENLTVYCNSSSVFSSLQWYRQEPGEGPVLLVTVVTGGEVKKLKRLTFQFGDARKDSSLHITAAQPGDTGLYLCATNGGSQGNLIFGKGTKLSVKP
V domain 2: DAGVTQSPTHLIKTRGQQVTLRCSPKSGHDTVSWYQQALGQGPQFIFQYYEEEERQRGNFPDRFSGHQFPNYSSELNVNALLLGDSALYLCASSLQDYGYTFGSGTRLTVV
Regarding B10, the “EC50 (µM) of peptide” value in test [3] turned out to be 0.0271 µM. For the same molecule, the binding result in test [1] is recorded as “recognises”; with peptide on HLA-A*02:01, “no recognition”. For the same molecule, the “Cell Frequency ≥1000 MFI, ≥1% (% tetramer positive cells in the Ag+ gate)” value in test [2] stood at 82.2%.

B11: PN42689 (TCR, V domains shown)
V domain 1: TQLLEQSPQFLSIQEGENLTVYCNSSSVFSSLQWYRQEPGEGPVLLVTVVTGGEVKKLKRLTFQFGDARKDSSLHITAAQPGDTGLYLCAEDGGSQGNLIFGKGTKLSVKP
V domain 2: DAGVTQSPTHLIKTRGQQVTLRCSPKSGHDTVSWYQQALGQGPQFIFQYYEEEERQRGNFPDRFSGHQFPNYSSELNVNALLLGDSALYLCASSLSDYGYTFGSGTRLTVV
For the molecule B11, the “EC50 (µM) of peptide” value in test [3] stood at 0.0095 µM. The binding result in test [1] is on record as “recognises”; with peptide on HLA-A*02:01, “no recognition”. Further, in test [2], the “Cell Frequency ≥1000 MFI, ≥1% (% tetramer positive cells in the Ag+ gate)” value stood at 4.92%.

B12: PN42610 (TCR, V domains shown)
V domain 1: QKEVEQNSGPLSVPEGAIASLNCTYSDRGSQSFFWYRQYSGKSPELIMSIYSNGDKEDGRFTAQLNKASQYVSLLIRDSQPSDSATYLCAGNYGQNFVFGPGTRLSVLP
V domain 2: AAGVIQSPRHLIKEKRETATLKCYPIPRHDTVYWYQQGPGQDPQFLISFYEKMQSDKGSIPDRFSAQQFSDYHSELNMSSLELGDSALYFCASSIGLNQPQHFGDGTRLSIL
B12: the binding result with peptide on HLA-A*02:01 is “no recognition”. Moreover, the “Cell Frequency ≥1000 MFI, ≥1% (% tetramer positive cells in the Ag+ gate)” value in test [2] amounted to 6.08%.

B13: PN42654 (TCR, V domains shown)
V domain 1: DAKTTQPNSMESNEEEPVHLPCNHSTISGTDYIHWYRQLPSQGPEYVIHGLTSNVNNRMASLAIAEDRKSSTLILHRATLRDAAVYYCILRDGIGNQFYFGTGTSLTVIP
V domain 2: EAQVTQNPRYLITVTGKKLTVTCSQNMNHEYMSWYRQDPGLGLRQIYYSMNVEVTDKGDVPEGYKVSRKEKRNFPLILESPSPNQTSLYFCASSLWTGGGYTFGSGTRLTVV
As to B13, in the test with peptide on HLA-A*02:01, the binding result is listed as “no recognition”. Also, the “Cell Frequency ≥1000 MFI, ≥1% (% tetramer positive cells in the Ag+ gate)” value in test [2] was 20.1%.

B14: PN42655 (TCR, V domains shown)
V domain 1: DAKTTQPNSMESNEEEPVHLPCNHSTISGTDYIHWYRQLPSQGPEYVIHGLTSNVNNRMASLAIAEDRKSSTLILHRSTLRDAAVYYCILRPDSWGKFQFGAGTQVVVTP
V domain 2: EAQVTQNPRYLITVTGKKLTVTCSQNMNHEYMSWYRQDPGLGLRQIYYSMNVEVTDKGDVPEGYKVSRKEKRNFPLILESPSPNQTSLYFCASSLWTGGGYTFGSGTRLTVV
notes: as for B1
For the molecule B14, the binding result in test [1] was “recognises”; with peptide on HLA-A*02:01, “no recognition”. In addition, the “Cell Frequency ≥1000 MFI, ≥1% (% tetramer positive cells in the Ag+ gate)” value in test [2] turned out to be 27%.

B15: PN42683 (TCR, V domains shown)
V domain 1: DAKTTQPNSMESNEEEPVHLPCNHSTISGTDYIHWYRQLPSQGPEYVIHGLTSNVNNRMASLAIAEDRKSSTLILHRATLRDAAVYYCILRDREYGNKLVFGAGTILRVKS
V domain 2: EAQVTQNPRYLITVTGKKLTVTCSQNMNHEYMSWYRQDPGLGLRQIYYSMNVEVTDKGDVPEGYKVSRKEKRNFPLILESPSPNQTSLYFCASSLWTGGGYTFGSGTRLTVV
With B15, in the test with peptide on HLA-A*02:01, the binding result is reported as “no recognition”. In addition, the “Cell Frequency ≥1000 MFI, ≥1% (% tetramer positive cells in the Ag+ gate)” value in test [2] worked out at 11.1%.

B16: PN42677 (TCR, V domains shown)
V domain 1: DAKTTQPNSMESNEEEPVHLPCNHSTISGTDYIHWYRQLPSQGPEYVIHGLTSNVNNRMASLAIAEDRKSSTLILHRATLRDAAVYYCILRDGTGNQFYFGTGTSLTVIP
V domain 2: EAQVTQNPRYLITVTGKKLTVTCSQNMNHEYMSWYRQDPGLGLRQIYYSMNVEVTDKGDVPEGYKVSRKEKRNFPLILESPSPNQTSLYFCASSSTGYYGYTFGSGTRLTVV
Consider B16, for which the binding result with peptide on HLA-A*02:01 is “no recognition”. The “Cell Frequency ≥1000 MFI, ≥1% (% tetramer positive cells in the Ag+ gate)” value in test [2] is 25.3%.

(Values after patent publication US20230060095A1 (Regeneron, published 2023).)
